Target: T1, His6-SlyA (Escherichia coli K-12 MG1655?) (UniProt P0A8W3)
T1 sequence: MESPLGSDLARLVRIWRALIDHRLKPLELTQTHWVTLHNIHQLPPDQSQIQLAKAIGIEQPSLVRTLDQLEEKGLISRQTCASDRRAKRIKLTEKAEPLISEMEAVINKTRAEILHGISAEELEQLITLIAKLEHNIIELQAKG
Test: EMSA
Conditions: 20 µl: 10 mM Tris/HCl pH 7.5, 50 mM KCl, 1 mM DTT, poly(dI-dC) (1 µg), ~1 nM biotin-DNA, 0-500 nM SlyA, 25 °C, 30 min

For “GATGTATGTTCTAATAAAATAGATTGGGTGGGTTGTATATTGACGTTAGTATAAATAGTATTAATGCCGCTTGCATGAATCAAGCAAAATTTATTTATATTAGTAATATGTATTTAATTAATAAATACATACATTATTTTTATGATTAAGGATAATCAATAATTAAAACAGGAAGTTCT (double strand) [gspA-gspC intergenic region]”, the DNA binding was “binds”.
In the case of “GATGGGGATAAGCAGAGCGCTTATCCCCGGCAAAGAGCAATAACCCTTCTGCGATCCCTGCCGCCTTCGTCAAAAGTATCGACGGGGATCGCTACCAGATTAACCCGAATCGGCATGGAGTCAACGACGG (double strand) [sgcA-sgcQ intergenic region]”, the binding is reported as “no binding”.
For “TGTTGCTAATAGTTAAATCGCGAATCATAAAAAGCAAAGGATCTTTTAACGAAATGTTAACTATGCGATCTGTATAGCAACTGCGGAAAACATTAATGCACTGATAAATAATGATTTATAAAAATAGGGTGCGAAATCCGTCACAGTTCAAACATACAAAATTTGTGATTTTACTTAACTATTGTGTAACTTTCATAAAACAATGTGATTCGTGTTTTTAATTAATTCACGAAAACTGGAATCGTAAAGGTGATGAC (double strand) [paaA-paaZ intergenic region]”, the DNA binding was “binds”.
For “GCAAGCACCTTAAAATCACCATCATACACTAAATCAGTAAGTTGGCAGCATTACCGAAATCCCCATCCTTTAGGGCAGTGAGGATGTCAATAATAGCAGACCACATCATGAGTCATTCTGACCGACACATGCCAGAAGCAGAGGCTCCATCCCATTTTATACCTACCTTATAACACTTAGAAAAACAACATGTTAAAAATGTCTATTGGAAACAATTTTATTTCCAATTGTAATGATAACCATTCTCATATTAATATGACTACGTGATAATTAACTTTTGATGCACTCCGC (double strand) [fecI-insA-7 intergenic region]”, the DNA binding was “binds”.

— PMC5797941
